Measurements as given in paper PMC8320243 (Circulation research, 2021).

B1: cMyc-tagged RyR2 N-terminus (NT, residues 1-906), wild type (domain or fragment, UniProt Q92736 1-906, looked up)
chain: MADGGEGEDEIQFLRTDDEVVLQCTATIHKEQQKLCLAAEGFGNRLCFLESTSNSKNVPPDLSICTFVLEQSLSVRALQEMLANTVEKSEGQVDVEKWKFMMKTAQGGGHRTLLYGHAILLRHSYSGMYLCCLSTSRSSTDKLAFDVGLQEDTTGEACWWTIHPASKQRSEGEKVRVGDDLILVSVSSERYLHLSYGNGSLHVDAAFQQTLWSVAPISSGSEAAQGYLIGGDVLRLLHGHMDECLTVPSGEHGEEQRRTVHYEGGAVSVHARSLWRLETLRVAWSGSHIRWGQPFRLRHVTTGKYLSLMEDKNLLLMDKEKADVKSTAFTFRSSKEKLDVGVRKEVDGMGTSEIKYGDSVCYIQHVDTGLWLTYQSVDVKSVRMGSIQRKAIMHHEGHMDDGISLSRSQHEESRTARVIRSTVFLFNRFIRGLDALSKKAKASTVDLPIESVSLSLQDLIGYFHPPDEHLEHEDKQNRLRALKNRQNLFQEEGMINLVLECIDRLHVYSSAAHFADVAGREAGESWKSILNSLYELLAALIRGNRKNCAQFSGSLDWLISRLERLEASSGILEVLHCVLVESPEALNIIKEGHIKSIISLLDKHGRNHKVLDVLCSLCVCHGVAVRSNQHLICDNLLPGRDLLLQTRLVNHVSSMRPNIFLGVSEGSAQYKKWYYELMVDHTEPFVTAEATHLRVGWASTEGYSPYPGGGEEWGGNGVGDDLFSYGFDGLHLWSGCIARTVSSPNQHLLRTDDVISCCLDLSAPSISFRINGQPVQGMFENFNIDGLFFPVVSFSAGIKVRFLLGGRHGEFKFLPPPGYAPCYEAVLPKEKLKVEHSREYKQERTYTRDLLGPTVSLTQAAFTPIPVDTSQIVLPPHLERIREKLAENIHELWVMNKIELGWQYGP
B2: cMyc-tagged RyR2 N-terminus (NT, residues 1-906) with R420Q (domain or fragment, UniProt Q92736 1-906, looked up)
chain: MADGGEGEDEIQFLRTDDEVVLQCTATIHKEQQKLCLAAEGFGNRLCFLESTSNSKNVPPDLSICTFVLEQSLSVRALQEMLANTVEKSEGQVDVEKWKFMMKTAQGGGHRTLLYGHAILLRHSYSGMYLCCLSTSRSSTDKLAFDVGLQEDTTGEACWWTIHPASKQRSEGEKVRVGDDLILVSVSSERYLHLSYGNGSLHVDAAFQQTLWSVAPISSGSEAAQGYLIGGDVLRLLHGHMDECLTVPSGEHGEEQRRTVHYEGGAVSVHARSLWRLETLRVAWSGSHIRWGQPFRLRHVTTGKYLSLMEDKNLLLMDKEKADVKSTAFTFRSSKEKLDVGVRKEVDGMGTSEIKYGDSVCYIQHVDTGLWLTYQSVDVKSVRMGSIQRKAIMHHEGHMDDGISLSRSQHEESRTARVIQSTVFLFNRFIRGLDALSKKAKASTVDLPIESVSLSLQDLIGYFHPPDEHLEHEDKQNRLRALKNRQNLFQEEGMINLVLECIDRLHVYSSAAHFADVAGREAGESWKSILNSLYELLAALIRGNRKNCAQFSGSLDWLISRLERLEASSGILEVLHCVLVESPEALNIIKEGHIKSIISLLDKHGRNHKVLDVLCSLCVCHGVAVRSNQHLICDNLLPGRDLLLQTRLVNHVSSMRPNIFLGVSEGSAQYKKWYYELMVDHTEPFVTAEATHLRVGWASTEGYSPYPGGGEEWGGNGVGDDLFSYGFDGLHLWSGCIARTVSSPNQHLLRTDDVISCCLDLSAPSISFRINGQPVQGMFENFNIDGLFFPVVSFSAGIKVRFLLGGRHGEFKFLPPPGYAPCYEAVLPKEKLKVEHSREYKQERTYTRDLLGPTVSLTQAAFTPIPVDTSQIVLPPHLERIREKLAENIHELWVMNKIELGWQYGP

Biological target: the molecule itself
Test: cross-linking

Row | Protein | stoichiometry N
1 | B1 | 4
2 | B2 | 4
